Experimental data reported in PMC12342889, “Deciphering the RNA recognition by Musashi-1 to design protein and RNA variants for in vitro and in vivo applications”.

Key:
MSI-1 RRM2-M2 = MSI-1 RRM2-M2 (Homo sapiens, UniProt O43347 104-200, K182M); experiment: SPR; NMR: 50 mM Tris-HCl, 140 mM NaCl, 1 mM EDTA, 1 mM protease inhibitors, pH 7.2 (RRM1: pH 7.5), 298 K; fluorescence quenching: 50 mM Tris pH 7.2, 140 mM NaCl, 1 mM EDTA; SPR: biotinylated RNA immobilised, buffer not in the material; settings: protein: recombinant, label: biotin for SPR
MSI-1 RRM2-M1 = MSI-1 RRM2-M1 (Homo sapiens, UniProt O43347 104-200, E180N); experiment: as above; settings: protein: recombinant, label: biotin for SPR
MSI-1 RRM1 = MSI-1 RRM1 (Homo sapiens, UniProt O43347 1-103); experiment: SPR; 1:1 model; NMR: 50 mM Tris-HCl, 140 mM NaCl, 1 mM EDTA, 1 mM protease inhibitors, pH 7.2 (RRM1: pH 7.5), 298 K; fluorescence quenching: 50 mM Tris pH 7.2, 140 mM NaCl, 1 mM EDTA; SPR: biotinylated RNA immobilised, buffer not in the material; settings: protein: recombinant, label: biotin for SPR
MSI-1 RRM2 = MSI-1 RRM2 (Homo sapiens, UniProt O43347 104-200); experiment: as above; settings: protein: recombinant, label: biotin for SPR
MSI-1 RRM1-2 DM [1] = target: T1, MSI-1 RRM1-2 DM (Homo sapiens, UniProt O43347 1-200, E180N;K182M); experiment: SPR; KD1 monovalent; NMR: 50 mM Tris-HCl, 140 mM NaCl, 1 mM EDTA, 1 mM protease inhibitors, pH 7.2 (RRM1: pH 7.5), 298 K; fluorescence quenching: 50 mM Tris pH 7.2, 140 mM NaCl, 1 mM EDTA; SPR: biotinylated RNA immobilised, buffer not in the material; settings: protein: recombinant; label: biotin for SPR; unlabelled for NMR; single strand
MSI-1 RRM1-2 [2] = target: T2, MSI-1 RRM1-2 (Homo sapiens, UniProt O43347 1-200); experiment: SPR; KD1 monovalent, 1:2 model; NMR: 50 mM Tris-HCl, 140 mM NaCl, 1 mM EDTA, 1 mM protease inhibitors, pH 7.2 (RRM1: pH 7.5), 298 K; fluorescence quenching: 50 mM Tris pH 7.2, 140 mM NaCl, 1 mM EDTA; SPR: biotinylated RNA immobilised, buffer not in the material; settings: protein: recombinant, label: biotin for SPR, unlabelled for NMR
MSI-1 RRM1-2 [3] = target: T2, MSI-1 RRM1-2; experiment: SPR; KD1 monovalent; bivalent part negligible; NMR: 50 mM Tris-HCl, 140 mM NaCl, 1 mM EDTA, 1 mM protease inhibitors, pH 7.2 (RRM1: pH 7.5), 298 K; fluorescence quenching: 50 mM Tris pH 7.2, 140 mM NaCl, 1 mM EDTA; SPR: biotinylated RNA immobilised, buffer not in the material; settings: protein: recombinant; label: biotin for SPR; single strand
MSI-1 RRM1-2 DM [4] = target: T1, MSI-1 RRM1-2 DM; experiment: SPR; KD1 monovalent; 1:1 model at low RNA density; NMR: 50 mM Tris-HCl, 140 mM NaCl, 1 mM EDTA, 1 mM protease inhibitors, pH 7.2 (RRM1: pH 7.5), 298 K; fluorescence quenching: 50 mM Tris pH 7.2, 140 mM NaCl, 1 mM EDTA; SPR: biotinylated RNA immobilised, buffer not in the material; settings: protein: recombinant; label: biotin for SPR; single strand
MSI-1 RRM1-2 DM [5] = target: T1, MSI-1 RRM1-2 DM; experiment: NMR; more than one species; NMR: 50 mM Tris-HCl, 140 mM NaCl, 1 mM EDTA, 1 mM protease inhibitors, pH 7.2 (RRM1: pH 7.5), 298 K; fluorescence quenching: 50 mM Tris pH 7.2, 140 mM NaCl, 1 mM EDTA; SPR: biotinylated RNA immobilised, buffer not in the material; settings: protein: recombinant; label: biotin for SPR; unlabelled for NMR; hairpin
MSI-1 RRM1-2 DM [6] = target: T1, MSI-1 RRM1-2 DM; experiment: SPR; KD1 monovalent, 1:2 model; NMR: 50 mM Tris-HCl, 140 mM NaCl, 1 mM EDTA, 1 mM protease inhibitors, pH 7.2 (RRM1: pH 7.5), 298 K; fluorescence quenching: 50 mM Tris pH 7.2, 140 mM NaCl, 1 mM EDTA; SPR: biotinylated RNA immobilised, buffer not in the material; settings: protein: recombinant; label: biotin for SPR; unlabelled for NMR; single strand
[7] = unlabelled for NMR, single strand

MSI-1 RRM2-M2, sequence (O43347 104-200 K182M): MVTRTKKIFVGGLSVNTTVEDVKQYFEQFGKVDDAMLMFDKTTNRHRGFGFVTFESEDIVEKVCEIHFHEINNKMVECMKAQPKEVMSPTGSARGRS
T1 sequence (O43347 1-200 E180N/K182M): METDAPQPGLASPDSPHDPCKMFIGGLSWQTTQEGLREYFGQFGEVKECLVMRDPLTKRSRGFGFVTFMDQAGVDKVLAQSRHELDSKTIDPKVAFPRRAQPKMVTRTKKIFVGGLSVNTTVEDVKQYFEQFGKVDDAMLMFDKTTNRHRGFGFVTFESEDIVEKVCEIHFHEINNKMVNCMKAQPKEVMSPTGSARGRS
MSI-1 RRM1, sequence (O43347 1-103): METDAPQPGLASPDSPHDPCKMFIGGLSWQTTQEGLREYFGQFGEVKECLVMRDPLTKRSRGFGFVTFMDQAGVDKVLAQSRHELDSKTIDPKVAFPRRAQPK
MSI-1 RRM2-M1, sequence (O43347 104-200 E180N): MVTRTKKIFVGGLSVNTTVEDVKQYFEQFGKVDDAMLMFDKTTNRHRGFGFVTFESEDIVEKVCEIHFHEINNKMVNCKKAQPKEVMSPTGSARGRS
MSI-1 RRM2, sequence (O43347 104-200): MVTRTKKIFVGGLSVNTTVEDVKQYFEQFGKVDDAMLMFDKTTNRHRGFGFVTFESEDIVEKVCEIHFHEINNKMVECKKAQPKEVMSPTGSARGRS
T2 sequence (O43347 1-200): as the sequence (O43347 1-200 E180N/K182M) above, with N180E, M182K counted along it

**Q.** Which results are given for UUGUUAGUUAUUAGUU (ssRNA) [oligo-L3]?
**A.** Kd (MSI-1 RRM2-M2; [7]): 64.5 ± 4.1 nM; Kd (MSI-1 RRM2-M1; [7]): 74.8 ± 9.3 nM; Kd (MSI-1 RRM1; [7]): 153 ± 8.6 nM; Kd (MSI-1 RRM2; [7]): 81.6 ± 2 nM; Kd (MSI-1 RRM1-2 DM [1]): 98.5 ± 4.8 nM; Kd (MSI-1 RRM1-2 [2]; single strand): 248 ± 8.5 nM

**Q.** With UUGAUAGUUAGCAGGU (ssRNA) [oligo-L3.2] as the binder, how does the Kd (MSI-1 RRM2-M2; [7]) read?
**A.** 88.5 ± 1.25 nM

**Q.** And the Kd (MSI-1 RRM2-M1; [7])?
**A.** 49.8 ± 11.4 nM

**Q.** What about the Kd (MSI-1 RRM1; [7]) of the same binder?
**A.** 85.6 ± 7.4 nM

**Q.** And the Kd (MSI-1 RRM2; [7])?
**A.** 44.5 ± 4.5 nM

**Q.** And the Kd (MSI-1 RRM1-2 DM [1])?
**A.** 98.5 ± 6.9 nM

**Q.** What about the Kd (MSI-1 RRM1-2 [2]; single strand) of the same binder?
**A.** 144 ± 15 nM

**Q.** Which results are given for CACUCUGUAGUAUGUAGGGUUUAUUU (structured_RNA) [oligo-HP5]?
**A.** Kd (MSI-1 RRM2-M2; unlabelled for NMR, hairpin): 14.5 ± 3 nM; Kd (MSI-1 RRM2-M1; unlabelled for NMR, hairpin): 14.5 ± 0.8 nM; Kd (MSI-1 RRM1; unlabelled for NMR, hairpin): 32.8 ± 5.2 nM; Kd (MSI-1 RRM2; unlabelled for NMR, hairpin): 26.4 ± 1.6 nM; Kd (MSI-1 RRM1-2 [2]; hairpin): 48.6 ± 5.6 nM

**Q.** Which results are given for UUGUCAGUUACCCCUU (ssRNA) [oligo-L2.1]?
**A.** Kd (MSI-1 RRM2-M2; single strand): 62.9 ± 11 nM; Kd (MSI-1 RRM2-M1; single strand): 58.6 ± 3.6 nM; Kd (MSI-1 RRM1; single strand): 151 ± 16.9 nM; Kd (MSI-1 RRM2; single strand): 123 ± 7.8 nM; Kd (MSI-1 RRM1-2 [3]): 218 ± 27.5 nM; Kd (MSI-1 RRM1-2 DM [4]): 67 ± 20.4 nM

**Q.** For AAGCGUUAGUUAUUUAGUCGCUU (structured_RNA) [oligo-HP4], which Kd (MSI-1 RRM2-M2; unlabelled for NMR, hairpin) is on record?
**A.** 39.1 ± 15 nM

**Q.** And the Kd (MSI-1 RRM2-M1; unlabelled for NMR, hairpin)?
**A.** 14.1 ± 2.5 nM

**Q.** And the Kd (MSI-1 RRM1; unlabelled for NMR, hairpin)?
**A.** 21.9 ± 2.7 nM

**Q.** And the Kd (MSI-1 RRM2; unlabelled for NMR, hairpin)?
**A.** 37.2 ± 2.4 nM

**Q.** Does AAGCGUUAGUUAUUUAGUCGCUU (structured_RNA) [oligo-HP4] bind (MSI-1 RRM1-2 DM [5])?
**A.** binds

**Q.** What about the Kd (MSI-1 RRM1-2 [2]; hairpin) of the same binder?
**A.** 76.8 ± 5.9 nM

**Q.** With UUGUUAGUUACCCCUU (ssRNA) [oligo-L2] as the binder, how does the Kd (MSI-1 RRM2-M2; [7]) read?
**A.** 108 ± 10.2 nM

**Q.** What about the Kd (MSI-1 RRM2-M1; [7]) of the same binder?
**A.** 35.5 ± 3.6 nM

**Q.** And the Kd (MSI-1 RRM1; [7])?
**A.** 47.1 ± 0.7 nM

**Q.** What about the Kd (MSI-1 RRM2; [7]) of the same binder?
**A.** 25 ± 3.6 nM

**Q.** And the Kd (MSI-1 RRM1-2 [2]; single strand)?
**A.** 57.6 ± 12.9 nM

**Q.** And the Kd (MSI-1 RRM1-2 DM [6])?
**A.** 104 ± 9.5 nM
